# Patent publication US20140086913A1 (Gilead, published 2014)
# T1: human DDR2 stably expressed on HEK293 cells (human, UniProt Q16832 22-855)
# T1 construct: whole, on cells; also called hDDR2
# T1 sequence (looked up): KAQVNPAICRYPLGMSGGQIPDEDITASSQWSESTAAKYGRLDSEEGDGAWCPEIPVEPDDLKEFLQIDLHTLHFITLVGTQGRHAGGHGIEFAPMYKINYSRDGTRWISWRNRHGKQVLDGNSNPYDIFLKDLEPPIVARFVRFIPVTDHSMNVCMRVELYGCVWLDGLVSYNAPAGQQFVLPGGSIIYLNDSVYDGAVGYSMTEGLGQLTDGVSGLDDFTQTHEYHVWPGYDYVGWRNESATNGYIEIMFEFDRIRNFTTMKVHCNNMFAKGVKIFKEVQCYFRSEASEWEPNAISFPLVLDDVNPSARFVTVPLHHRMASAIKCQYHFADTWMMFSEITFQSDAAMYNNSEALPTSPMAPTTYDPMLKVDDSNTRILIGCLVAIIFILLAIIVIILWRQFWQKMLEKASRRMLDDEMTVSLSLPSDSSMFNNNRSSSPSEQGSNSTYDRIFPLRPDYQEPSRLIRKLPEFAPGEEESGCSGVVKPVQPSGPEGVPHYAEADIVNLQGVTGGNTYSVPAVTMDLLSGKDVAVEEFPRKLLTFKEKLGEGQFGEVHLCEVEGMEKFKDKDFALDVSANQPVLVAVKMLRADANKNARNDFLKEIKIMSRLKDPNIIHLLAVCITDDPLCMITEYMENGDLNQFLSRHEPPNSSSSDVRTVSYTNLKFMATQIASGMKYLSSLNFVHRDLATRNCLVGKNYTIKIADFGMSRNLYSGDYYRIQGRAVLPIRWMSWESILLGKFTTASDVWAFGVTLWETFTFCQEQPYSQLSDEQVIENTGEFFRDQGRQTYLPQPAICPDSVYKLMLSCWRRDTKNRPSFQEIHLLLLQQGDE
# T2: mouse ECD-DDR1-Fc (mouse; human, UniProt Q03146 22-414)
# T2 construct: also called mouse DDR1-ECD; wild-type mouse DDR1-ECD; not shown: human IgG1 Fc of the vector pFuse-hIgG1-Fc1 (Invivogen)
# T2 sequence: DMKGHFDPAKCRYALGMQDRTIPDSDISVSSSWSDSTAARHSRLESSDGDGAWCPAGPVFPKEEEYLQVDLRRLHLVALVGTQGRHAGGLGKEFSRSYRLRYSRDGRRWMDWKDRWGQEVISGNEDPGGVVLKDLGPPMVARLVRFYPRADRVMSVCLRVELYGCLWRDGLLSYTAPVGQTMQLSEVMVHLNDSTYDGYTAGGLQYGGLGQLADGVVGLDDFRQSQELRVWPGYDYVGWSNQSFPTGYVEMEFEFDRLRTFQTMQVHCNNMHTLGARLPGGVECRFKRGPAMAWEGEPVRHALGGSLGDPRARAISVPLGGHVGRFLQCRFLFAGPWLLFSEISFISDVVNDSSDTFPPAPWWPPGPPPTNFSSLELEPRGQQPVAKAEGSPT
# B1: AB2079 (antibody, V domains shown)
# VH: EVMLVESGGGLVKPGGSLKLSCAASGFTFSNYAMSWVRQTPEKRLEWVAKTSSGDTYTYYPDSVKGRFTISRDNAKNTLYLQMTSLRSEDTAIYYCARQDYYGITPWFFDVWGAGTTVTVSS
# VL: ENVLTQSPAIMSASPGEKVTMTCRASSSVSSIYLHWYQQKSGASPKLWIYSTSNLASGVPARFSGSGSGTSYSLTITSVEAEDAATYYCQQYSGYPLITFGAGTKLELKR
# notes: mouse hybridoma mAb
# B2: AB2009 (antibody, V domains shown)
# VH: EVQLVESGGGLVQPGGSLKFSCAASGFTFSSYGMSWVRQTPDKRLELVAIINSHGFSTYYPDSVKGRFTISRDNAKNTLYLQMSSLKSEDTAIYYCARGGYGNYGMDYWGQGTSVTVSS
# VL: DIVLTQSPASLAVSLGQRATISCRASESVDSYGNSFMHWYQQKVGQPPKLLIFRASNIESGIPARFSGSGSRTDFTLTINSVEADDVATYYCQQSNEAPYTFGGGTKLEIKR
# notes: mouse hybridoma mAb
# B3: AB2021 (antibody, V domains shown)
# VH: EVKLVESGGGLVKPGGSLNLSCAASGFTFSNYAMSWSRQTPEKRLEWVASISSGGNTYYPDSVRGRFTISRDNARNILYLQMSSLRSEDTAMYYCAREPGTYNWYFDVWGAGTTVTVSS
# VL: DIVMTQSQKFMSTSVGDRVSVTCKASQNVGTNVAWYQQKPGQSLKALIYSASYRFSGVPDRFTGSGYGTDFTLTISNVQSEDLAEYFCQQCNSYPLTFGAGTKLELKR
# notes: mouse hybridoma mAb
# B4: AB2034 (antibody, V domains shown)
# VH: QVQLKESGPGLVAPSQSLSITCTVSGFSLTSYHIHWVRQPPGKGLEWLVVIWSDGSTTYNSALKSRLSISKDNSKSQVFLKMNSLQTDDTAIYYCARTGNFYAMDYWGQGTSVTVSS
# VL: SIVMTQTPKFLLVSAGDRVTITCKASQSVSNDVVWYQQKPGQSPKLLIYYASSRYTGVPDRFTGSGYGTDFTFTISTVQAEDLAVYFCQQDYSSPYTFGGGTKLEIR
# notes: mouse hybridoma mAb
# B5: AB2065 (antibody, V domains shown)
# VH: B1 VH
# VL: B1 VL
# notes: mouse hybridoma mAb
# B6: AB2029 (antibody, V domains shown)
# VH: QVLLRQSGPGLVQPSQSLSITCTVSGFSLTTYGVHWVRQSPGKGLEWLGVIWSGGSTDYNAAFISRLTISKDNSKSQVFFKMNSLQANDTAIYYCARYYSGSSLYFAMDYWGQGTSVTVSS
# VL: NIVMTQTPKFLLVSAGDTVTITCKASQSVSNDVAWYQQKPGQSPKLLIYYASNRYTGVPDRFTGSGFGTDFTFTISTVQTEDLAVYFCQQDYSSLTFGAGTKLELKR
# notes: mouse hybridoma mAb
# Target: human DDR1 (isoform B) stably expressed on HEK293 cells (human) (UniProt Q08345)
# Assay: flow cytometry, HEK293/human DDR1, normalized to empty-vector cells
# human DDR1 (isoform B) stably expressed on HEK293 cells (human), sequence (Q08345 19-913): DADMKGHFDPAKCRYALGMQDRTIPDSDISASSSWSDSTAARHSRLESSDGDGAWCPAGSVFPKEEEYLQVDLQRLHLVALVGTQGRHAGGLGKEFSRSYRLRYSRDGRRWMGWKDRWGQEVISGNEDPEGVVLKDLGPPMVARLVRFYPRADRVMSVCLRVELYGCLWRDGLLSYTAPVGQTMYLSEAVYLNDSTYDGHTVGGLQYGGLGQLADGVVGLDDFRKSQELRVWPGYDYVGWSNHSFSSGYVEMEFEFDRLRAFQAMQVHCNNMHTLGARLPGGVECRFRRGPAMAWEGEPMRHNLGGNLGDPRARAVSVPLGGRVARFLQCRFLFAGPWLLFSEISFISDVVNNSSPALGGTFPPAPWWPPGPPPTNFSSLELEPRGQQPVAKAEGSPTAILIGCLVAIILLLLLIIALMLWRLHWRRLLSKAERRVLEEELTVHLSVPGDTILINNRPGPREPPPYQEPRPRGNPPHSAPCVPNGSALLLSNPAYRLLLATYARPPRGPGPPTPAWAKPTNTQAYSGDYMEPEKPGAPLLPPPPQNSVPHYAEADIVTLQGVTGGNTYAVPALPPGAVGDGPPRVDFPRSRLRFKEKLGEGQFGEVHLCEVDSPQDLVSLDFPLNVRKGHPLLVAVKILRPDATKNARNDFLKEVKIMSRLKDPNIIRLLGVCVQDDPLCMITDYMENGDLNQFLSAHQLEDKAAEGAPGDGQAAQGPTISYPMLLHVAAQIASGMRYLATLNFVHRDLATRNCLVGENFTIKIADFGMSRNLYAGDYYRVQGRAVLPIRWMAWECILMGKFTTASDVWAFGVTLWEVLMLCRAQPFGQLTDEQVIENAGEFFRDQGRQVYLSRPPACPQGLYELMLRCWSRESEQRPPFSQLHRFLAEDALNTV
row,MFI,Binder
1,14300 MFI,B1
2,11900 MFI,B2

# Target: DDR1 endogenously expressed on human cancer cell lines (T47D, HCT-116, A431) (human) (UniProt Q08345)
# Assay: flow cytometry, HCT116 cells
row,MFI,Binder
1,1390 MFI,B3
2,1060 MFI,B4
3,2480 MFI,B5
4,1730 MFI,B1
5,1010 MFI,B6
6,1480 MFI,B2

# Target: DDR1 with a ProLink Tag (PK) in engineered U20S cells (DiscoveRx), Q08345
# Assay: cell-based or functional assay
row,"Mean EC50, DDR1 Tyr513 phosphorylation assay (U20S)",Binder
1,7.71 nM,B3
2,5.2 nM,B4
3,25.7 nM,B5
4,4.9 nM,B6
5,1.5 nM,B2

# Target: DDR1 endogenously expressed on human cancer cell lines (T47D, HCT-116, A431) (human) (UniProt Q08345)
# Assay: flow cytometry, T47D cells
row,MFI,Binder
1,5010 MFI,B3
2,4370 MFI,B4
3,4400 MFI,B5
4,6130 MFI,B1
5,3560 MFI,B6
6,5930 MFI,B2

# Target: T1, human DDR2 stably expressed on HEK293 …
# Assay: flow cytometry, HEK293/hDDR2
# Description: Additional monoclonal antibodies were obtained from individual hybridomas in Example 1 and were characterized for their properties.
# Cells were cultured in DMEM with 10% FBS and 0.8 mg/mL hygromycin. When cells reached 60-80% confluence, they were centrifuged at 1,200 rpm for 5 minutes, suspended in FACS buffer (1×PBS, 1% BSA), and aliquoted into a 96-well plate at 1×10⁶ cells per well. The anti-DDR1 monoclonal antibodies or appropriate isotype controls at 2 μg per 1×10⁶ cells were added and incubated at 4° C. for 1 hr. The cells were washed twice with FACS buffer then stained with the anti-IgG-PE secondary antibody at 10 μL per well at 4° C. for 1 hr. The cells were washed again and measured for the MFI values or signals using flow cytometry (LSR Fortessa instrument, BD Biosciences). Background MFI signals from vector-only cells (i.e. no DDR1 or DDR2 expression) was subtracted from those of the cells treated with antibodies. Higher MFI values or signals indicated increased binding or specificity of the anti-DDR1 antibodies to the DDR1 on the cell surface.
row,MFI,Binder
1,92 MFI,B3
2,175 MFI,B4
3,353 MFI,B5
4,326 MFI,B1
5,263 MFI,B6
6,277 MFI,B2

# Target: DDR1 endogenously expressed on human cancer cell lines (T47D, HCT-116, A431) (human) (UniProt Q08345)
# Assay: cell-based or functional assay
"EC50, DDR1 phospho-specific ELISA (T47D)","Maximal inhibition, DDR1 phospho-specific ELISA (T47D)",NPI of cluster formation at 66 nM (A431 cells),"EC50, cluster formation assay (A431 cells)",Binder
0.35 nM,100%,15.8%,,B5
0.13 nM,,0.5%,,B1
0.47 nM,100%,127%,0.43 nM,B2

# Target: T2, mouse ECD-DDR1-Fc
# Assay: ELISA, coated antigen
# Description: (§1) In this study, ELISA was used to determine the affinity of murine anti-DDR1 monoclonal antibodies to the extracellular domain (ECD) of either human or murine DDR1. A 96-well MaxiSorb ELISA plates (Nunc) were coated with 2 μg/mL of one of three purified recombinant tagged proteins: human ECD-DDR1-His protein, human ECD-DDR1-Fc, or mouse ECD-DDR1-Fc overnight at 4° C. The next day, the plates were blocked with 5% bovine serum albumin (BSA, Jackson Immunoresearch) prior to the addition of serially diluted anti-DDR1 monoclonal antibodies. Antibodies were incubated for 1 hr at room temperature. The binding of antibody to the antigen was detected by incubating samples with anti-mouse IgG-HRP (horse radish peroxidase) secondary detection antibody (Jackson Immunoresearch) for 1 hr. After a washing step, 3,3′,5,5″-tetramethylbenzidine (TMB) reagent was added for HRP to produce a colorimetric signal. The reaction was stopped by addition of 1M hydrochloric acid after 2 minutes and measured for absorbance (optical density, OD) at 450λ on a Molecular Devices plate reader. The OD values were plotted against antibody concentration and fitted using a using 4-parameter logistic equation in SoftMax software (Molecular Devices). The apparent affinity constant (KD) was taken from the C-parameter of the equation (y=(A−D)/(1+(x/C)̂B)+D). The apparent affinity constants were summarized (in some cases shown as average values) in Table 10 below. Lower value indicates higher binding affinity of the antibody to the antigen.
row,binding result,Binder
1,no binding,B3
2,no binding,B4
3,no binding,B5
4,no binding,B1
5,no binding,B6

# Target: DDR1 endogenously expressed on human cancer cell lines (T47D, HCT-116, A431) (human) (UniProt Q08345)
# Assay: cell-based or functional assay
# Remark: another data set of the same source
"EC50, DDR1 phospho-specific ELISA (T47D)","EC50, cluster formation assay (A431 cells)","Maximal inhibition, DDR1 phospho-specific ELISA (T47D)",NPI of cluster formation at 66 nM (A431 cells),Binder
2.26 nM,18.5 nM,100%,106%,B3
0.63 nM,7.87 nM,100%,119%,B4
0.55 nM,,100%,100%,B6

# Target: human DDR1 (isoform B) stably expressed on HEK293 cells (human) (UniProt Q08345)
# Assay: flow cytometry, HEK293/hDDR1
row,MFI,Binder
1,15800 MFI,B3
2,11400 MFI,B4
3,3560 MFI,B5
4,14300 MFI,B1
5,11700 MFI,B6
6,11900 MFI,B2

# Target: T2, mouse ECD-DDR1-Fc
# Assay: ELISA, coated antigen, apparent KD
# Description: as §1
row,Kd,Binder
1,6.93 nM,B2

# Target: T3, human ECD-DDR1-His protein (human, UniProt Q08345 21-416)
# T3 construct: also called huDDR1-ECD-His; DDR1ECD-6Xhis; not shown: His tag
# Assay: ELISA, coated antigen, apparent KD
# Description: as §1
row,Kd,Binder
1,0.153 nM,B3
2,0.311 nM,B4
3,0.197 nM,B5
4,0.07 nM,B1
5,0.397 nM,B6
6,0.197 nM,B2

# Target: T4, DDR1ECD-Fc (R&D Systems, Catalog #2396-DR) (human, UniProt Q08345 21-416)
# T4 construct: range 21-416; construct as described for the bought immunogen; also called human ECD-DDR1-Fc; Fc-ECD-DR1; not shown: human IgG1, Pro100-Lys330
# Assay: ELISA, coated antigen, apparent KD
# Description: as §1
row,Kd,Binder
1,0.252 nM,B3
2,0.256 nM,B4
3,0.234 nM,B5
4,0.0883 nM,B1
5,0.302 nM,B6
6,0.257 nM,B2

# Target: T4, DDR1ECD-Fc (R&D Systems, Catalog …)
# Assay: ELISA
row,Kd,Binder
1,0.088 nM,B1
2,0.257 nM,B2
